Measured values taken from the supplement of paper PMC11780869.

System: Bacillus subtilis
Experiment: cleaved RNA product abundance (RNA/gDNA barcode ratio) relative to median wild-type variant (ratio to wild type); higher = more accumulation of the downstream cleavage product
Conditions: experiment (reporter, strain, medium): exp 8a: truncated aprE reporter, strain BJT201 with 2% xylose (RNase J1 expressed); cleavage site: glnRA (positions -5 to +31 mutated)
Procedure, shortened: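 Truncated aprE or tetM reporter mRNAs with barcoded RNase Y cleavage-site windows, mutagenized from oligos at a 9% error rate, sat in the B. subtilis chromosome. Cells grew in LB at 37°C from OD600 0.0003 to 0.3. Gel-selected cleaved RNA was reverse transcribed and its barcodes sequenced with those from genomic DNA, collapsing by UMI. Cleaved product abundance equals the RNA:gDNA barcode ratio per construct over the median construct with the unmutated site.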

With “CGACATGTCCCGCTTCTTTCATTATCCGTTAGCAACTGTTTTGCTATATACATTTACCTTTTAAGAGGAGGAATT” the “cleaved RNA product abundance” value was 0.941.
With “CGACATGTCCCGCTTCTTTCATTATGCCGTTAGCAACTGTTTTGCTATATACATTTACCTTTTAAGAGGAGGAAT” the “cleaved RNA product abundance” value was 1.32.
“CGACATGTCCCGCTTCTTTCATTATTACGTTACCAACTATTTTGCTATATACATTTATCTTTTAAGAGGAGGAAT” was tested, and the “cleaved RNA product abundance” value was 0.242.
For “CGACATGTCCCGCTTCTTTCATTATTACGTTAGCAACCGTTTTGCTATATACATTTACCTTTTAAGAGGAGGAAT”, the “cleaved RNA product abundance” value was 1.06.
In the case of “CGACATGTCCCGCTTCTTTCATTATTACGTTAGCAACTGTTTTGCTATATACATTTACCTTTTAAGAGGAGGAAT”, the “cleaved RNA product abundance” value is reported as 1.27.
“CGACATGTCCCGCTTCTTTCATTATTCAGTTAGCAACTGTTTTGCTATATACATTTACCTTTTAAGAGGAGGAAT” was tested, and the “cleaved RNA product abundance” value was 1.38.
For “CGACATGTCCCGCTTCTTTCATTATTCCAATAGCAACTGTTTTGCTATATACATTTACCTTTTAAGAGGAGGAAT”, the “cleaved RNA product abundance” value was 0.925.
With “CGACATGTCCCGCTTCTTTCATTATTCCATTAGCAACTGTTTTGCTATATACATTTACCTTTTAAGAGGAGGAAT” the “cleaved RNA product abundance” value was 1.21.
With “CGACATGTCCCGCTTCTTTCATTATTCCATTAGCAATTGTTTTGCTATATACATTTACCTTTTAAGAGGAGGAAT” the “cleaved RNA product abundance” value was 1.33.
“CGACATGTCCCGCTTCTTTCATTATTCCCTTAGCAACTGTTTTGCTATATACATTTACCTTTTAAGAGGAGGAAT” was tested, and the “cleaved RNA product abundance” value was 0.221.
In the case of “CGACATGTCCCGCTTCTTTCATTATTCCGATAGCAACTATTTTGCTATATACATTTACCTTTTAAGAGGAGGAAT”, the “cleaved RNA product abundance” value is reported as 1.85.
For “CGACATGTCCCGCTTCTTTCATTATTCCGATAGCAACTGTTTTGCTATATACATTTACCTTTTAAGAGGAGGAAT”, the “cleaved RNA product abundance” value was 0.898.
“CGACATGTCCCGCTTCTTTCATTATTCCGATATCAATTGTTTCGCTATATACATTTACCTTTTAAGAGGAGGAAT” was tested, and the “cleaved RNA product abundance” value was 0.147.
With “CGACATGTCCCGCTTCTTTCATTATTCCGTAAGCAACTGTTTTGCTATATACATTTACCTTTTAAGAGGAGGAAT” the “cleaved RNA product abundance” value was 0.594.
In the case of “CGACATGTCCCGCTTCTTTCATTATTCCGTAAGCGACTGTTTTGATATATACATTTACCTTTTAAGAGGGGGAAT”, the “cleaved RNA product abundance” value is reported as 0.359.
For “CGACATGTCCCGCTTCTTTCATTATTCCGTCAGCAACTGTTTTGCTATATACATTTACCTTTTAAGAGGAGGAAT”, the “cleaved RNA product abundance” value was 0.502.
In the case of “CGACATGTCCCGCTTCTTTCATTATTCCGTGAGCAACTGTTTTGATATATACATTTACCTTTTAAGAGGAGGAAT”, the “cleaved RNA product abundance” value is reported as 0.52.
In the case of “CGACATGTCCCGCTTCTTTCATTATTCCGTGAGCAACTGTTTTGCTATATACATTTACCTTTTAAGAGGAGGAAT”, the “cleaved RNA product abundance” value is reported as 0.62.
“CGACATGTCCCGCTTCTTTCATTATTCCGTGAGCAACTGTTTTTCTATATACATTTACCTTTTAAGAGGAGGAAT” was tested, and the “cleaved RNA product abundance” value was 0.407.
For “CGACATGTCCCGCTTCTTTCATTATTCCGTTAACAACAGTTTTGCTATATACATTTACCTTTTAAGAGGAGGAAT”, the “cleaved RNA product abundance” value was 0.271.
“CGACATGTCCCGCTTCTTTCATTATTCCGTTAACAACTATTTTGCTATATACATTTACCTTTTAAGAGGAGGAAT” was tested, and the “cleaved RNA product abundance” value was 0.283.
With “CGACATGTCCCGCTTCTTTCATTATTCCGTTAACAACTGTTTTACTATATACATTTACCTTTTAAGAGGAGGAAT” the “cleaved RNA product abundance” value was 0.257.
In the case of “CGACATGTCCCGCTTCTTTCATTATTCCGTTAACAACTGTTTTGCTATATACATATACCTTTTAAGAGGAGGAAT”, the “cleaved RNA product abundance” value is reported as 0.239.
In the case of “CGACATGTCCCGCTTCTTTCATTATTCCGTTAACAACTGTTTTGCTATATACATTTACCTTTTAAGAGGAGGAAT”, the “cleaved RNA product abundance” value is reported as 0.312.
In the case of “CGACATGTCCCGCTTCTTTCATTATTCCGTTAACAACTGTTTTGCTATATACATTTATCTTTTAAGAGGAGGAAT”, the “cleaved RNA product abundance” value is reported as 0.27.
“CGACATGTCCCGCTTCTTTCATTATTCCGTTAACAACTGTTTTGCTATATACTTTTACCTTTTAAGAGGAGGAAT” was tested, and the “cleaved RNA product abundance” value was 0.273.
“CGACATGTCCCGCTTCTTTCATTATTCCGTTAACAACTGTTTTGCTATATTCATTTACCTTTTAAGAGGAGGAAT” was tested, and the “cleaved RNA product abundance” value was 0.155.
For “CGACATGTCCCGCTTCTTTCATTATTCCGTTACCAAATGTTTTGCTATATACATTTACCTTTTAAGAGGAGGAAT”, the “cleaved RNA product abundance” value was 0.265.
“CGACATGTCCCGCTTCTTTCATTATTCCGTTACCAACTGTTTTGCTATATACATTTACCTTTTAAGAGGAGGAAT” was tested, and the “cleaved RNA product abundance” value was 0.289.
With “CGACATGTCCCGCTTCTTTCATTATTCCGTTAGAAACTGTTTTGCTATATACACTTACCTTTTAAGAGGAGGAAT” the “cleaved RNA product abundance” value was 0.302.
“CGACATGTCCCGCTTCTTTCATTATTCCGTTAGAAACTGTTTTGCTATATACATTTACCTTTTAAGAGGAGGAAT” was tested, and the “cleaved RNA product abundance” value was 0.309.
With “CGACATGTCCCGCTTCTTTCATTATTCCGTTAGCAAATGTTGTGCTATATACATTTACCTTTTAAGAGGAGGAAT” the “cleaved RNA product abundance” value was 0.444.
In the case of “CGACATGTCCCGCTTCTTTCATTATTCCGTTAGCAAATGTTTTGCTATATACATTTACCTTTTAAGAGGAGGAAT”, the “cleaved RNA product abundance” value is reported as 1.75.
“CGACATGTCCCGCTTCTTTCATTATTCCGTTAGCAACAGTTTTGCTATATACATTTACCTTTTAAGAGGAGGAAT” was tested, and the “cleaved RNA product abundance” value was 1.12.
“CGACATGTCCCGCTTCTTTCATTATTCCGTTAGCAACGGTTTTGCTATATACATTTACCTTTTAAGAGGAGGAAT” was tested, and the “cleaved RNA product abundance” value was 0.56.
With “CGACATGTCCCGCTTCTTTCATTATTCCGTTAGCAACTATTTTGCTATATACATTTACCTTTTAAGAGGAGGAAT” the “cleaved RNA product abundance” value was 1.91.
“CGACATGTCCCGCTTCTTTCATTATTCCGTTAGCAACTATTTTTCTATATACATTTACCTTTTAAGAGGAGGAAT” was tested, and the “cleaved RNA product abundance” value was 0.956.
“CGACATGTCCCGCTTCTTTCATTATTCCGTTAGCAACTCTTTTGCTAAATACATTTACCTTTTAAGAGGAGGAAT” was tested, and the “cleaved RNA product abundance” value was 0.422.
In the case of “CGACATGTCCCGCTTCTTTCATTATTCCGTTAGCAACTCTTTTGCTATATACATTTACCTTTTAAGAGGAGGAAT”, the “cleaved RNA product abundance” value is reported as 2.3.
With “CGACATGTCCCGCTTCTTTCATTATTCCGTTAGCAACTGCTTTGCTATATACATTTACCTTTTAAGAGGAGGAAT” the “cleaved RNA product abundance” value was 0.681.
With “CGACATGTCCCGCTTCTTTCATTATTCCGTTAGCAACTGGTTTGCTATATACATTTACCTTTTAAGAGGAGGAAT” the “cleaved RNA product abundance” value was 1.54.
For “CGACATGTCCCGCTTCTTTCATTATTCCGTTAGCAACTGTATTGCTATATACATTTACCTTTTAAGAGGAGGAAT”, the “cleaved RNA product abundance” value was 1.36.
“CGACATGTCCCGCTTCTTTCATTATTCCGTTAGCAACTGTCTTGCTATATACATTTACCTTTTAAGAGGAGGAAT” was tested, and the “cleaved RNA product abundance” value was 1.31.
With “CGACATGTCCCGCTTCTTTCATTATTCCGTTAGCAACTGTGTTGCTATATACATTTACCTTTTAAGAGGAGGAAT” the “cleaved RNA product abundance” value was 0.7.
In the case of “CGACATGTCCCGCTTCTTTCATTATTCCGTTAGCAACTGTTATGCTATATACATTTACCTTTTAAGAGGAGGAAT”, the “cleaved RNA product abundance” value is reported as 0.76.
“CGACATGTCCCGCTTCTTTCATTATTCCGTTAGCAACTGTTCTGCTATATACATTTACCTTTTAAGAGGAGGAAT” was tested, and the “cleaved RNA product abundance” value was 0.551.
“CGACATGTCCCGCTTCTTTCATTATTCCGTTAGCAACTGTTGTGCTATATACATTTACCTTTTAAGAGGAGGAAT” was tested, and the “cleaved RNA product abundance” value was 0.941.
“CGACATGTCCCGCTTCTTTCATTATTCCGTTAGCAACTGTTTAGCTATATACATTTACCTTTTAAGAGGAGGAAT” was tested, and the “cleaved RNA product abundance” value was 0.706.
For “CGACATGTCCCGCTTCTTTCATTATTCCGTTAGCAACTGTTTAGGTATATACATTTACCTTTTAAGAGGAGGAAT”, the “cleaved RNA product abundance” value was 0.443.
For “CGACATGTCCCGCTTCTTTCATTATTCCGTTAGCAACTGTTTCGCTATATACATTTACCTTTTAAGAGGAGGAAT”, the “cleaved RNA product abundance” value was 0.509.
For “CGACATGTCCCGCTTCTTTCATTATTCCGTTAGCAACTGTTTGGCTATATACATTTACCTTTTAAGAGGAGGAAT”, the “cleaved RNA product abundance” value was 0.949.
In the case of “CGACATGTCCCGCTTCTTTCATTATTCCGTTAGCAACTGTTTTACTATATACATATACCTTTTAAGAGGAGGAAT”, the “cleaved RNA product abundance” value is reported as 0.607.
For “CGACATGTCCCGCTTCTTTCATTATTCCGTTAGCAACTGTTTTACTATATACATTTACCTTTTAAGAGGAGGAAT”, the “cleaved RNA product abundance” value was 0.812.
For “CGACATGTCCCGCTTCTTTCATTATTCCGTTAGCAACTGTTTTCATAAATACATTTACCTTTTAAGAGGAGGAAT”, the “cleaved RNA product abundance” value was 0.375.
For “CGACATGTCCCGCTTCTTTCATTATTCCGTTAGCAACTGTTTTCCTATATACATTTACCTTTTAAGAGGAGGAAT”, the “cleaved RNA product abundance” value was 0.524.
For “CGACATGTCCCGCTTCTTTCATTATTCCGTTAGCAACTGTTTTGATATATACATTTACCTTTTAAGAGGAGGAAT”, the “cleaved RNA product abundance” value was 0.502.
With “CGACATGTCCCGCTTCTTTCATTATTCCGTTAGCAACTGTTTTGCAATATACATTTACCTTTTAAGAGGAGGAAT” the “cleaved RNA product abundance” value was 0.626.
With “CGACATGTCCCGCTTCTTTCATTATTCCGTTAGCAACTGTTTTGCCATATACATTTACCTTTTAAGAGGAGGAAT” the “cleaved RNA product abundance” value was 0.346.
In the case of “CGACATGTCCCGCTTCTTTCATTATTCCGTTAGCAACTGTTTTGCGATATACATTTACCTTTTAAGAGGAGGAAT”, the “cleaved RNA product abundance” value is reported as 0.52.
For “CGACATGTCCCGCTTCTTTCATTATTCCGTTAGCAACTGTTTTGCTAAATACATTTACCTTTTAAGAGGAGGAAT”, the “cleaved RNA product abundance” value was 0.93.
“CGACATGTCCCGCTTCTTTCATTATTCCGTTAGCAACTGTTTTGCTACATACATTTACCTTTTAAGAGGAGGAAT” was tested, and the “cleaved RNA product abundance” value was 0.626.
With “CGACATGTCCCGCTTCTTTCATTATTCCGTTAGCAACTGTTTTGCTATAAACAGTTACCTTTTAAGAGGAGGAAT” the “cleaved RNA product abundance” value was 0.0919.
With “CGACATGTCCCGCTTCTTTCATTATTCCGTTAGCAACTGTTTTGCTATAAACATTTACCTTTTAAGAGGAGGAAT” the “cleaved RNA product abundance” value was 0.851.
With “CGACATGTCCCGCTTCTTTCATTATTCCGTTAGCAACTGTTTTGCTATACACATTTACCTTTTAAGAGGAGGAAT” the “cleaved RNA product abundance” value was 0.807.
“CGACATGTCCCGCTTCTTTCATTATTCCGTTAGCAACTGTTTTGCTATAGACATTTACCTTTTAAGAGGAGGAAT” was tested, and the “cleaved RNA product abundance” value was 0.917.
“CGACATGTCCCGCTTCTTTCATTATTCCGTTAGCAACTGTTTTGCTATATAAATTTACCTTTTAAGAGGAGGAAT” was tested, and the “cleaved RNA product abundance” value was 0.753.
